Sequences and labels used below:
T1: IHF from Haemophilus influenzae (Hi) (Haemophilus influenzae)
T1 chain: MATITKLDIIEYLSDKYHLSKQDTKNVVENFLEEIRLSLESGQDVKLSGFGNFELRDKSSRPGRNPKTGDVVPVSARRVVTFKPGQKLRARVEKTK

B1: TRL1218 (antibody, V domains shown)
VH: QVQLLESGADMVQPGRSLRLSCAASGFNFRTYAMHWVRQAPGKGLEWVAVMSHDGYTKYYSDSVRGQFTISRDNSKNTLYLQMNNLRPDDTAIYYCARGLTGLSVGFDYWGQGTLVTVSS
VL: DIVLTQSASVSGSPGQSITISCTGTSSDVGGYNYVSWYQQHPGKAPKLMIYDVTTRPSGVSDRFSGSKSGNTASLTISGLQAEDEADYYCSSYSSGSTPALFGGGTQLTVL
B2: TRL1230 (antibody, V domains shown)
VH: QVQLVQSGGGLVKPGGSLRLSCGASGFNLSSYSMNWVRQAPGKGLEWVSSISSRSSYIYYADSVQGRFTISRDNAKNSLYLQMNSLRAEDTAIYYCARVSPSTYYYYGMDVWGQGTTVTVSS
VL: DIVLTQPSSVSVSPGQTARITCSGDELPKQYAYWYQQKPGQAPVLVIYKDNERPSGIPERFSGSSSGTTVTLTISGVQAEDEADYYCQSADSSGTYVVFGGGTKLTVL
B3: TRL1215 (antibody, V domains shown)
VH: QVQLVESGTEVKNPGASVKVSCTASGYKFDEYGVSWVRQSPGQGLEWMGWISVYNGKTNYSQNFQGRLTLTTETSTDTAYMELTSLRPDDTAVYYCATDKNWFDPWGPGTLVTVSS
VL: DIVMTQSPSASGSPGQSITISCTGTNTDYNYVSWYQHHPGKAPKVIIYDVKKRPSGVPSRFSGSRSGNTATLTVSGLQTEDEADYYCVSYADNNHYVFGSGTKVTVL
B4: TRL1087 (antibody, V domains shown)
VH: QVQLLESGPGLVRPSDTLSLTCTFSADLSTNAYWTWIRQPPGKGLEWIGYMSHSGGRDYNPSFNRRVTISVDTSKNQVFLRLTSVTSADTAVYFCVREVGSYYDYWGQGILVTVSS
VL: DIEMTQSPSSLSASVGDRITITCRASQGISTWLAWYQQKPGKAPKSLIFSTSSLHSGVPSKFSGSGSGTDFTLTITNLQPEDFATYYCQQKWETPYSFGQGTKLDMIR
B5: TRL1216 (antibody, V domains shown)
VH: QVQLVESGGGVVQPGGSLRVSCAASAFSFRDYGIHWVRQAPGKGLQWVAVISHDGGKKFYADSVRGRFTISRDNSENTLYLQMNSLRSDDTAVYYCARLVASCSGSTCTTQPAAFDIWGPGTLVTVSS
VL: DIMLTQPPSVSVSPGQTARITCSGDALPKKYTYWYQQKSGQAPVLLIYEDRKRPSEIPERFSAFTSWTTATLTITGAQVRDEADYYCYSTDISGDIGVFGGGTKLTVL
B6: TRL1070 (antibody, V domains shown)
VH: QVQLVQSGGTLVQPGGSLRLSCAASGFTFSYYSMSWVRQAPGKGLEWVANIKHDGTERNYVDSVKGRFTISRDNSEKSLYLQMNSLRAEDTAVYYCAKYYYGAGTNYPLKYWGQGTRVTVSS
VL: DILMTQSPSSLSASVGDRVTITCRASQGIRNDLGWYQQKPGKAPKLLIYAASSLQSGVPSRFSGSGSGTDFTLTISSLQPEDFATYYCLQDYNYPLTFGGGTKVEIKR
B7: TRL1232 (antibody, V domains shown)
VH: QVQLVESGAEVKKPGALVKVSCKASGYTFSGYYMHWVRQAPGQGLEWMGWINPKSGGTKYAQKFQGRVTMTRDTSISTAYMELSRLRSDDTAVYFCARGGPSNLERFLERLQPRYSYDDKYAMDVWGQGTTVTVSS
VL: DIVMTQSPGTLSLSPGARATLSCRASQSVSSIYLAWYQQKPGQAPRLLIFGASSRATGIPDRFSGSGSGTDFTLTISRLEPEDFAVYYCQQYGSSPYTFGQGTKLEIKR
B8: TRL1068 (antibody, V domains shown)
VH: QVQLVESGPGLVKPSETLSLTCRVSGDSNRPSYWSWIRQAPGKAMEWIGYVYDSGVTIYNPSLKGRVTISLDTSKTRFSLKLTSVIAADTAVYYCARERFDRTSYKSWWGQGTQVTVSS
VL: DIVLTQAPGTLSLSPGDRATLSCRASQRLGGTSLAWYQHRSGQAPRLILYGTSNRATDTPDRFSGSGSGTDFVLTISSLEPEDFAVYYCQQYGSPPYTFGQGTTLDIK

T2 sequence (A6TAI1 whole entry, chain 1 of 2): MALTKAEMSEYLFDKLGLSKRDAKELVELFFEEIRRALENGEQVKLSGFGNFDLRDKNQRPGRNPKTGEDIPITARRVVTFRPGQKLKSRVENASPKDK
T2 sequence (A6T704 whole entry, chain 2 of 2, further chain): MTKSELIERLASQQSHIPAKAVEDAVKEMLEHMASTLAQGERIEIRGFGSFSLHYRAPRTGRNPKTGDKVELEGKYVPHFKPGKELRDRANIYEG

The first assay deals with T1, IHF from Haemophilus influenzae (Hi). Nature of the assay: ELISA. A general note: ELISA stands for enzyme-linked immunosorbent assay.
With B1, the OD came to 0.04 OD.

B2 showed an OD of 0.06 OD.

In the case of B3, the OD stood at 1.9 OD.

B4 yielded an OD of 0.06 OD.

B5 came in with an OD of 0.06 OD.

Take B6: the OD worked out at 0.11 OD.

In the case of B7, the OD turned out to be 0.1 OD.

The next assay concerns the target T2, IHF from Klebsiella pneumoniae (Kp) (Klebsiella pneumoniae).
T2 construct: Recombinant, His-tagged, made in HEK293 cells; also called IHF (Kp)
Description: ELISA.
B1: the OD is 0.06 OD.

The molecule B2 had an OD of 0.07 OD.

For the molecule B3, the OD was determined as 1.6 OD.

In the case of B4, the OD was determined as 0.06 OD.

In the case of B5, the OD stood at 0.4 OD.

B6 displayed an OD of 0.5 OD.

B7: the OD came to 0.1 OD.

Another assay addresses T1, IHF from Haemophilus influenzae (Hi). Description: ForteBio Octet QK biosensor (BLI), ratio of on and off rates.
As to B8, the Kd (in general, the equilibrium constant for the complex coming apart) amounted to 0.35 µM.

Another assay deals with T2, IHF from Klebsiella pneumoniae (Kp). The description is as above.
As to B8, the Kd came out at 0.007 µM.

These data come from patent US20220259294A1 (published 2022).
